Values quoted from earlier work in paper PMC1991591.

Target: Fus3 (Saccharomyces cerevisiae) (UniProt P16892)
Chain of UniProt P16892 (P16892 whole entry): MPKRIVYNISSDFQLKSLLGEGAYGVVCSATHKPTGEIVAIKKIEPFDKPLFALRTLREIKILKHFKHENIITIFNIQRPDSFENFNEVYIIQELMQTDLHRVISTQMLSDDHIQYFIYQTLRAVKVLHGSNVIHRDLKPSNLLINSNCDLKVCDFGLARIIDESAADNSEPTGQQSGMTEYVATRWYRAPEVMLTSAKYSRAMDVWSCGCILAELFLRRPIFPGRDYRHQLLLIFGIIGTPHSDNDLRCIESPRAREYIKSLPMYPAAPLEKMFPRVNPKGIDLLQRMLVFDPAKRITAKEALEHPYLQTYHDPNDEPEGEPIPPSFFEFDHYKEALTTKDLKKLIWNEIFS

For Ste5 (from UniProt P32917), the Kd is given as 1 µM.
